The record followed here is patent US20100105622A1 (UNIVERSIDAD DE BARCELONA, published 2010).

This experiment deals with Bovine Serum Albumin (BSA) (bovine, UniProt P02769 25-607). Description: ELISA, BSA coated on the plate, rsCD6 added at several concentrations, detected with biotin-labeled anti-CD6 mAb (MAE) and streptavidin-HRP.
Chain of Bovine Serum Albumin (BSA) (P02769 25-607 limits assumed): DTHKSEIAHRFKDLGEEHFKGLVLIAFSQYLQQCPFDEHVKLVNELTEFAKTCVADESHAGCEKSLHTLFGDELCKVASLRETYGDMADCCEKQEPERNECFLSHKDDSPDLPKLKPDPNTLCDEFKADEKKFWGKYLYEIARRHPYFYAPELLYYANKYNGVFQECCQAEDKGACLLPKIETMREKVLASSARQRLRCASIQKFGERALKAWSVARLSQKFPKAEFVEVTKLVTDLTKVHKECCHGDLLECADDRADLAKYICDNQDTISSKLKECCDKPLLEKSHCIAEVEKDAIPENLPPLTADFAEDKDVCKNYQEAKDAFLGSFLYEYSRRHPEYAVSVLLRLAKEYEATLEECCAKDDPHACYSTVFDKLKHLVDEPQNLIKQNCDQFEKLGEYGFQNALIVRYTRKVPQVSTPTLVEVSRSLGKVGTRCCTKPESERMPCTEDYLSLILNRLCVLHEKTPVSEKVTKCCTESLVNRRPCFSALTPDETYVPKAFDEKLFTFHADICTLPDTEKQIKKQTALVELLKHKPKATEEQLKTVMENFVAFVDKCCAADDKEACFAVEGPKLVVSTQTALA

Method: Twelve μg of LPS purified from E. coli O111:B4 (Sigma), Zymosan from Saccharomyces cerevisae (Sigma), peptidoglycan purified from S. aureus (Fluka) or Bovine Serum Albumin (BSA), were used to coat 96-well microtiter plates (Nunc, Roskilde, Denmark) in PBS, overnight at 4° C. Non-specific binding to the wells was prevented by the addition of PBS containing 1% BSA for 1 h at room temperature. Several concentrations of rsCD6 were then added to the wells and incubated for 3 h at room temperature. Bound protein was detected by the addition of a 1:200 dilution of biotin-labeled mAb anti-CD6 (MAE) for 1 h at RT, followed by a 1:1000 dilution of HRP-labeled streptavidin (DAKO, Glostrup, Denmark), which was incubated for 30 min at RT. Between each incubation step, unbound protein or HRP-streptavidin was washed off three times with PBS plus 0.01% Tween-20. Color was developed by adding 3,3′,5,5′-tetramethylbenzidine liquid substrate (Sigma), and the absorbance was read at 405 nm. The assay was repeated three times with similar results.

B1: rsCD6, recombinant soluble ectodomain of human CD6 (amino acids D25 to E384, immature protein numbering) (receptor, UniProt P30203 25-384, looked up)
chain: DQLNTSSAESELWEPGERLPVRLTNGSSSCSGTVEVRLEASWEPACGALWDSRAAEAVCRALGCGGAEAASQLAPPTPELPPPPAAGNTSVAANATLAGAPALLCSGAEWRLCEVVEHACRSDGRRARVTCAENRALRLVDGGGACAGRVEMLEHGEWGSVCDDTWDLEDAHVVCRQLGCGWAVQALPGLHFTPGRGPIHRDQVNCSGAEAYLWDCPGLPGQHYCGHKEDAGAVCSEHQSWRLTGGADRCEGQVEVHFRGVWNTVCDSEWYPSEAKVLCQSLGCGTAVERPKGLPHSLSGRMYYSCNGEELTLSNCSWRFNNSNLCSQSLAARVLCSASRSLHNLSTPEVPASVQTVTIE
notes: range 25-384; Used as unpurified serum-free culture supernatant to coat wells in the gp120 ELISA; also called recombinant soluble CD6; rCD6
As to B1, the binding result is reported as “no binding”.
